Where a chain is given by its changes, count along the chain named.
T1: GII.4 Sydney 2012 shell (S) domain (UniProt P54635 1-221)
T1 chain: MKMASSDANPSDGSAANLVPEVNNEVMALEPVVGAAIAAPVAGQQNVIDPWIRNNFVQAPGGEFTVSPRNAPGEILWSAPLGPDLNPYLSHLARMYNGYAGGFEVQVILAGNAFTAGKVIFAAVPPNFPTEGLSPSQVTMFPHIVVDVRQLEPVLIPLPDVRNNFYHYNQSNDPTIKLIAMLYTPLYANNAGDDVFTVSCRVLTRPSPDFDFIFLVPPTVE

B1: NORO-178.6 (antibody, V domains shown)
VH: QVQLVESGGGVVQPGRSLRLSCAASGFTFSTYGMNWVRQAPGRGLEWVADISYDGSNSRYADSVKGRFTISRDNSKNTLSLQMNGLRTEDTAVYYCAKDWYLAMAGAAFDSWGPGTLVTVSS
VL: SSELTQDPVVSVALGQTVRITCQGDSLTTFYASWFQQKPGQAPALVLYGNDNRPSGIPDRFSGSRSGNTASLTITGAQAEDEADYYCNSRDSSGKPSFGGGTKLTVL
B2: NORO-317 (antibody, V domains shown)
VH: QVQLVESGGGLVKPGGSLRLSCVASGFTFSDYYISWVRQAPGKGLEWVSYISAINSYTNYADSVRGRFTVSRDNAKKSVFLQMNSLRVDDTAVYYCARDVGGSVRYSSNSNKKSYNYFDPWGQGTLVTVSS
VL: SYELTQPPSVSVSPGQTATITCSGDVLSKEFAYWYQQKPGQAPVLVIYKDNERPSGIPERFSGSTSGTTVTLTISGVLAEDEAHYYCQSVDTRGTYKVFGGGTKLTVL
B3: NORO-313.1 (antibody, V domains shown)
VH: QVQLVESGGGLVKPGGSLRLSCAASGFTFSDFYMSWIRQAPGKGLEWVGYISSIAGATNYADSVKGRFTISRDSSKRSLYLQMNSLRVEDTAVYYCARMGRLELERRPHYYYPLDVWGQGTLVTVSS
VL: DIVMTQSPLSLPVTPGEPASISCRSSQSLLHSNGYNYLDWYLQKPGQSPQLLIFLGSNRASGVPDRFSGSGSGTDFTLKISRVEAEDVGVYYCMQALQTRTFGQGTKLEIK
B4: NORO-263 (antibody, V domains shown)
VH: QVQLVESGGGLVKPGGSLRLSCAASGFTLSDYYMSWIRQAPGKGLEWVAYISSSHTSTYYRDSVKGRFTISRDSAKKSLYLQMNSLRVEDTAIYYCARDWVGGRSAYSDHWGQGTLVTVSS
VL: SYELTQPPSVSVSPGQTARITCSGDALPRRPAFWYQQKSGQAPVLVMYDDSKRPSGIPERFSGSSSGTVATLTISGAQVEDEADYHCYSTDSSGKERVFGGGTKLTVL
B5: NORO-250B (antibody, V domains shown)
VH: QVQLVESGGGLVKPGGSLTLSCAASGFTFSDYYMNWIRQAPGKRLEWVSYISGIMSSTNYADSVKGRFTISRDTAKKSVYLQMNSLRAEDTAVYYCARATSQGATSYYFDSWGQGTLVTVSS
VL: QSVLTQPPSVSGAPGQRVTISCTGSSSNIGADYDVHWYQQLPGAAPRLLIYADINRPSGVPDRFSGSKSGTSASLAITGLQAEDEADYYCQSYDRSVSGSAVFGGGTKVTVL
B6: NORO-115 (antibody, V domains shown)
VH: QVQLVESGGGLVKPGGSLRLSCTASGITISGYYMSWIRQAPGKGLEWIVYINTSGRTIYYADSVKGRFSVSRDNAKESLYLQMDSLTVDDTGIYYCARDRLPASGSHWFHPWGQGTLVTVSS
VL: DIVMTQSPDSLAVSLGGRATINCKSSQSVLYTSDNKNYLAWYQQQPGQPPKLLISWASTRESGVPDRFSGSGSGTDFTLTISNLQAEDVAVYYCQQYYNSPLAFGGGTKVEIK
B7: NORO-123 (antibody, V domains shown)
VH: QVQLVESGGGVVQPGRSLRLSCSTSGFTFSQYPMHWVRQAPGKGLEWVALISYDGMNKYYADSVRGRFTISRDNSENTQYLQMNSLRGDDTAVYYCARVTGDCTGNRCSYWAYYYYGLDVWGQGTLVTVSS
VL: QSALTQPPSASGSPGQSVTISCTGTSSDVGGYKYVSWYQQHPGKAPKLMIYEVTRRPSGVPDRFSGSKSGNTAFLTVSGLQAEDEADYYCGSYAGSTTSGYVFGTGTKVIVL
B8: NORO-315B (antibody, V domains shown)
VH: QVQLVESGGGLVKPGGSLRLSCVASGFTFSDYYMTWFRQTPGRGLEWLSYISAIGGYTEYADSVKSRFIISRDNGKKSLYLQMNSLRAEDSGVYYCAREDCHGTSCYSGDWGQGTLVTVSS
VL: QSVLTQPPSVSGAPGQRVTISCTGSSSNIGAGYDVHWYQQLPGTAPKLLIYHNTNRPSGVPDRFSGSKSGTSAYLTITGLQAEDEADYYCQSYDRSLSKSRVFSGGTKLTVL
B9: NORO-278 (antibody, V domains shown)
VH: QVQLVESGGGVVQPGRSLRLSCAASGFTFSSYGMHWVRQAPGKGLEWVAVISYDGSNKYYADSVKGRFTISRDNSKNTLYLQMNSLRAEDTAVYYCAKVTIIAAADLLDYWGQGTLVTVSS
VL: B8 VL with H52G, T54S, Y74S, T76A, R95S, K99G, S100P, R101V, S104G
B10: NORO-303 (antibody, V domains shown)
VH: QVQLVESGGGVVQPGRSLRLSCAASGFIFSSYAMHWVRQAPGKGLEWVAVMSYDGNNKYYADSVKGRFTISRDNSKNTLFLQMNSLRPEDTAVYYCARDCRVGWVFTYGMDVWGQGTLVTVSS
VL: QSALTQPPSASGSPGQSVTISCTGTSSDVGGYNYVSWYQQHPGKAPKLMMYEISKRPSGVPIRFSGSKSGNTASLTVSGLQAEDEADYYCSSYAGTYNCVVFGGGTKLTVL
B11: NORO-251A (antibody, V domains shown)
VH: QVQLVESGGGVVQPGRSLRLSCAASGFTFRSYGIHWVRQAPGKGLEWVALISYDGSSKYYADSVKGRFTISRDNSKNTLYLQMNSLRSEDTAVYYCAKVRLTSYSIGWFSFDYWGQGTLVTVSS
VL: QSVLTQPPSVSAAPGQKVTISCSGSSSNIANYYVSWYQQLPGRAPKLLIYDNNKRPSGIPDRISGSKSGTSATLGITGLQTGDEADYYCGTWDTSLSAWVFGGGTKLTVL
B12: NORO-312A (antibody, V domains shown)
VH: QVQLVESGGALVKPGESLRLSCAASGFTFSDSYMSWIRQAPGKGLEWVAYISGIMSSTNYADSVKGRFTISRDNGKNSVYLQMNNLRAEDTAVYYCARDAQYCSGGRCYLVFDYWGQGTLVTVSS
VL: QSVLTQPPSVSGAPGQRVTISCTGSSSNIGAGYEVHWYQQLPGAAPKLIIYGNNNRPSGVPDRFSGSKSGTSASLAITGLQADDEADYYCQSYDNRLRVFGGGTKLTVL
B13: NORO-329A (antibody, V domains shown)
VH: QVQLVESGGGLVKPGGSLRLSCAASGFTFSDYYMSWIRQAPGKGLEWISYISSSFGSTDYAGSMKGRFTISRDNAKNSLYLQMNSLRAEDTAVYYCARYNYYGSGSFVFDYWGQGTLVTVSS
VL: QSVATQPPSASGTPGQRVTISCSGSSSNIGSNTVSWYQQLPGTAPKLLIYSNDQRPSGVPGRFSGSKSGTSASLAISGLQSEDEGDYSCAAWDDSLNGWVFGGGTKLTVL
B14: NORO-256A (antibody, V domains shown)
VH: QVQLVESGGGVVQAGRSLRLSCAASGFTFRSYGMHWVRQAPGKGLEWVAIISYDGGSKYYADSVKGRFTISRDNSKNTLYLQMNSLRVEDTALYYCAKDFLRVYSYGWHSFDIWGLGTLVTVSS
VL: QSVLTQPPSVSAAPGQRVTISCSGSSSNIGTYYVSWYQHLPGTAPKLLIYDNDKRPSGIPDRFSASKSGTSATLDIAGLQTGDEADYYCGTWDLSLTAGWVFGGGTKLTVL
B15: NORO-296A (antibody, V domains shown)
VH: QVQLVESGGGLVKPGGSLRLSCAASGFTFSEYYMSWVRQAPGKALEWVSYITSSFSSTSYADSVKGRFVISRDNAKNSLYLQMNSLRVEDTAVYYCARYGAEYGSRSFYFLDWGQGTLVTVSS
VL: QSVLTQPPSVSGAPEQRVTISCTGSSSNIGAGYDVHWYQVLPGIAPKLLIYDNNKRPSGVPDRFSGSKSGTSASLAITGLQAEDEADYYCQSYDSRLSSNVVFGGGTKLTVL
B16: NORO-273A (antibody, V domains shown)
VH: QVQLVQSGAEVKKPGASVKISCKASGYDFTSFPMHWVRLGPGQRLEWMGWISAANGNTKYSQKFQDRFTITRDTSASIVHMELSSLRSEDTAVYYCARGGYSSGLYRYSNYYYGMTVWGQGTLVTVSS
VL: DIVMTQTPLSLSVTPGQPASISCKSSESLLHNDRKTYLFWYLQKPGQPPQLLIFQVSNRFSGVPDRFSGSGSGTDFTLRISRVEAEDVGIYYCLQTTQLPLTFGGGTKVEIK
B17: 279A (antibody, V domains shown)
VH: QVQLVESGGGVVQPGRSLRLSCAASGFTFTKYGMHWVRQAPGKGLEWVAFIAYDGSVKYYGDSAKGRFAISRDNPKNTVYLQMNSLRAEDTAVYYCAKVEIHYYSNSLLGMDVWGQGTLVTVSS
VL: QSVLTQPPSASGTPGQRVTISCSGGNSNIGISYVYWYQHLPGTAPKLLISKNNLRPSGVPDRFSASKSGTSASLAISGLRSEDEAEYYCATLDINMTWVFGGGTKLTVL
B18: 202A.1 (antibody, V domains shown)
VH: QVQLVQSGAEVKKPGASVKVSCKASEYTFTGYYLQWVRQAPGHGLEWMGWINPSGGTKYSQKFQGRVTMTRDTSITTVYMELSRLRSDDTAVYYCARDLLRNWGDHDAFDVWGQGTMVTVSS
VL: QSVLTQPPSASETPGQGVTISCSGSSSNIGSNFVCWYQQVPGTAPKLLIYKNNQRPSGVPDRFSGSKSGTSASLAISGLRSEDEADYYCSAWDDSLSGPVFGGGTKLTVL

Target: T1, GII.4 Sydney 2012 shell (S) domain
Assay: ELISA

Row | Binder | EC50 [µM]
1 | B1 | 0.008

Target: Glutathione S-transferase (GST)-tagged GII.4 Sydney 2012 P domain dimers
Assay: ELISA

Row | Binder | EC50 [mg/L]
2 | B2 | 0.2
3 | B3 | 0.8
4 | B4 | 0.9
5 | B5 | 0.1
6 | B6 | 0.1
7 | B7 | 6.1
8 | B8 | 0.3
9 | B9 | 68.5
10 | B10 | 6.8

Target: T1, GII.4 Sydney 2012 shell (S) domain
Assay: ELISA
Remark: another data set of the same source

Row | Binder | EC50 [mg/L]
11 | B11 | 4.1
12 | B12 | 9.9
13 | B13 | 35.8
14 | B14 | 0.4
15 | B15 | 12.5

Target: T2, GII.4 Houston 2002 (ABY27560.1) VLPs (UniProt P54635 1-539)
Assay: ELISA binding

Row | Binder | EC50 [mg/L]
16 | B3 | 0.1
17 | B11 | 0.3
18 | B14 | 0.4
19 | B4 | 0.5
20 | B5 | 0.1
21 | B15 | 0.1
22 | B6 | 1.1
23 | B7 | 0.6
24 | B8 | 0.5
25 | B9 | 0.5

Target: T2, GII.4 Houston 2002 (ABY27560.1) VLPs
Assay: VLP blockade

Row | Binder | EC50 [mg/L]
26 | B3 | 2.1
27 | B16 | 5.2
28 | B11 | > 100
29 | B14 | > 100
30 | B4 | 2.1
31 | B5 | 17.9
32 | B15 | 3.2
33 | B6 | 2.3
34 | B7 | 2.5
35 | B8 | 2.2
36 | B9 | > 100
37 | B10 | > 100

Target: GII.6 (AF414410) VLPs (norovirus GII.6)
Assay: ELISA

Row | Binder | EC50 [µM]
38 | B1 | 0.02

Target: GII.17 (norovirus GII.17)
Assay: ELISA

Row | Binder | EC50 [µM]
39 | B17 | 0.018

Target: GI.3 (norovirus GI.3)
Assay: ELISA

Row | Binder | EC50 [µM]
40 | B17 | 0.07

Target: GII.13 (norovirus GII.13)
Assay: ELISA

Row | Binder | EC50 [µM]
41 | B18 | 0.004
42 | B17 | 0.01

Target: GII.3 (norovirus GII.3)
Assay: ELISA

Row | Binder | EC50 [µM]
43 | B18 | 0.041
44 | B17 | 0.014

From patent US20210324050A1 (published 2021)
